Data: the supplement of paper PMC7877785
± gives the uncertainty stated by the source.

Assay: self-splicing fitness, log relative to wild type (ln ratio); higher = more splicing; Tetrahymena group I intron in knt gene, E. coli kanamycin selection, DiMSum; sequences stand for … in CUCUCU…GGAGGGAAAAGUUAUCAGGCAUGCACCUGGUAGCUAGUCUUUAAACCAAUAGAUUGCAUCGGUUUAAAAGGCAAGACCGUCAAAUUGCGGGAAAGGGGUCAACAGCCGUUCAGUACCAAGUCUCAGGGGAAACUUUGAGAUGGCCUUGCAAAGGGUAUGGUAAUAAGCUGACGGACAUGGUCCUAACCACGCAGCCAAGUCCUAAGUCAACAGAUCUUCUGUUGAUAUGGAUGCAGUUCACAGACUAAAUGUCGGUCGGGGAAGAUGUAUUCUUCUCAUAAGAUAUAGUCGGACCUCUCCUUAAUGGGAGCUAGCGGAUGAAGUGAUGCAACACUGGAGCCGCUGGGAACUAAUUUGUAUGCGAAAGUAUAUUGAUUAGUUUUGGAGUACUCGUGGUCG
In short: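 Six replicate transformations of E. coli BL21(DE3) with a pET-22b(+) library were grown overnight at 37°C or 30°C. The library randomised all eight P1ex-region intron nucleotides, the intron lying in the knt kanamycin-resistance gene, and plates were LB agar with or without 25 μg/mL kanamycin plus 100 μg/mL carbenicillin, 50 μM IPTG and 0.2% rhamnose. Pooled colonies were amplicon-sequenced on an Illumina HiSeq 2500, and fitness is the DiMSum error-weighted combination of wild-type-normalised replicate fold changes, kanamycin versus none.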

Sequence	self-splicing fitness (ln) (30 °C)	self-splicing fitness (ln) (37 °C)
GAGGAGCAAUAUUACGUGGC	-3.34 ± 0.24	
GAGGAGCAAUAUUACGUUAA	-2.94 ± 0.36	-1.65 ± 0.21
GAGGAGCAAUAUUACGUUCC		-2.82 ± 0.48
GAGGAGCAAUAUUACGUUUU	-2.16 ± 0.13	-1.56 ± 0.15
GAGUAGCAAUAUUACGAAAA	-2.8 ± 0.38	
GAGUAGCAAUAUUACGAAGC	-2.94 ± 0.32	-1.8 ± 0.44
GAGUAGCAAUAUUACGAAUG	-3.18 ± 0.26	-1.89 ± 0.22
GAGUAGCAAUAUUACGACAA	-0.891 ± 0.12	-0.0944 ± 0.12
GAGUAGCAAUAUUACGACAC	-0.768 ± 0.18	-0.953 ± 0.27
GAGUAGCAAUAUUACGAUGA	-1.87 ± 0.2	-2.22 ± 0.23
GAGUAGCAAUAUUACGCAAG	-3.43 ± 0.26	-0.127 ± 0.1
GAGUAGCAAUAUUACGCAUA	-2.47 ± 0.25	-1.54 ± 0.24
GAGUAGCAAUAUUACGCGAG	-3.35 ± 0.16	-0.947 ± 0.1
GAGUAGCAAUAUUACGCGCC	-1.42 ± 0.3	-0.361 ± 0.29
GAGUAGCAAUAUUACGCGCG	-0.178 ± 0.21	-1 ± 0.2
GAGUAGCAAUAUUACGCGGG	-3.59 ± 0.2	-2.55 ± 0.16
GAGUAGCAAUAUUACGCUCA	-0.591 ± 0.15	-0.761 ± 0.15
GAGUAGCAAUAUUACGGCCU	-0.381 ± 0.12	0.808 ± 0.19
GAGUAGCAAUAUUACGGGAG	-2.18 ± 0.19	-3.1 ± 0.24
GAGUAGCAAUAUUACGGGAU	-3.73 ± 0.33	-2.96 ± 0.35
GAGUAGCAAUAUUACGGGGA	-2.51 ± 0.14	-2.45 ± 0.2
GAGUAGCAAUAUUACGGUCA	-0.51 ± 0.12	0.0478 ± 0.12
GAGUAGCAAUAUUACGUAAU	-2.16 ± 0.13	-2.38 ± 0.16
GAGUAGCAAUAUUACGUAGG	-3.9 ± 0.24	-1.81 ± 0.17
GAGUAGCAAUAUUACGUCGA	-1.43 ± 0.15	-0.114 ± 0.14

Sequence	self-splicing fitness (ln) (30 °C)	self-splicing fitness (ln) (37 °C)
GAGUAGCAAUAUUACGUCUG	-0.699 ± 0.12	-0.363 ± 0.15
GAGUAGCAAUAUUACGUGCC	-1.79 ± 0.23	-0.846 ± 0.18
GAGUAGCAAUAUUACGUGGU	-3.48 ± 0.25	-0.852 ± 0.29
GAGUAGCAAUAUUACGUGUA	-2.97 ± 0.11	-1.35 ± 0.1
GAGUAGCAAUAUUACGUUUC	-2.82 ± 0.18	-2.54 ± 0.27
GAUAAGCAAUAUUACGAAAA	-2.98 ± 0.17	-2.47 ± 0.2
GAUAAGCAAUAUUACGAAUC	-3.17 ± 0.25	-2.16 ± 0.25
GAUAAGCAAUAUUACGACAU	-0.4 ± 0.012	0.0172 ± 0.032
GAUAAGCAAUAUUACGACCC	-0.0888 ± 0.28	-0.582 ± 0.37
GAUAAGCAAUAUUACGACGU	-0.187 ± 0.076	0.339 ± 0.091
GAUAAGCAAUAUUACGAGGU	-3.42 ± 0.13	-2.79 ± 0.13
GAUAAGCAAUAUUACGCAGC	-3.45 ± 0.47	-0.777 ± 0.29
GAUAAGCAAUAUUACGCCAC	-3.11 ± 0.44	-2.13 ± 0.36
GAUAAGCAAUAUUACGGAUA	-1.73 ± 0.12	-1.31 ± 0.15
GAUAAGCAAUAUUACGGCCG	-1.35 ± 0.1	-0.332 ± 0.15
GAUAAGCAAUAUUACGGCCU	-0.624 ± 0.08	-0.592 ± 0.11
GAUAAGCAAUAUUACGGUAC	-1.92 ± 0.12	-0.383 ± 0.17
GAUAAGCAAUAUUACGGUUC	-3.24 ± 0.43	-2.5 ± 0.31
GAUAAGCAAUAUUACGGUUG	-2.65 ± 0.12	-1.26 ± 0.11
GAUAAGCAAUAUUACGUCCU	-0.907 ± 0.14	-0.0126 ± 0.19
GAUAAGCAAUAUUACGUCUA	-1.18 ± 0.075	-0.275 ± 0.085
GAUAAGCAAUAUUACGUGCC	-0.717 ± 0.1	-0.548 ± 0.13
GAUAAGCAAUAUUACGUGGG	-3.77 ± 0.23	-2.27 ± 0.25
GAUAAGCAAUAUUACGUGGU	-4.24 ± 0.19	-2.35 ± 0.15
GAUCAGCAAUAUUACGAGGA	-1.43 ± 0.13	-1.85 ± 0.13

Sequence	self-splicing fitness (ln) (30 °C)	self-splicing fitness (ln) (37 °C)
GAUCAGCAAUAUUACGAUCG	-1.17 ± 0.096	0.0523 ± 0.13
GAUCAGCAAUAUUACGAUUG	-0.607 ± 0.079	-0.237 ± 0.11
GAUCAGCAAUAUUACGCAAG	-1.99 ± 0.15	-1.34 ± 0.14
GAUCAGCAAUAUUACGCCUG	-0.866 ± 0.17	0.935 ± 0.19
GAUCAGCAAUAUUACGCCUU	-0.124 ± 0.12	0.438 ± 0.14
GAUCAGCAAUAUUACGCGAC	-1.63 ± 0.15	-1.62 ± 0.15
GAUCAGCAAUAUUACGCGAU	-3.92 ± 0.21	-2.6 ± 0.2
GAUCAGCAAUAUUACGCGCA	0.225 ± 0.092	-0.0411 ± 0.1
GAUCAGCAAUAUUACGCGGA	-1.45 ± 0.18	-0.828 ± 0.14
GAUCAGCAAUAUUACGCGGG	-2.31 ± 0.1	-1.33 ± 0.11
GAUCAGCAAUAUUACGCUAG	-1.15 ± 0.15	-0.723 ± 0.18
GAUCAGCAAUAUUACGGACC	-0.933 ± 0.32	-1.08 ± 0.36
GAUCAGCAAUAUUACGGCAA	-0.689 ± 0.084	-1.24 ± 0.087
GAUCAGCAAUAUUACGGCAC	-0.826 ± 0.099	0.413 ± 0.17
GAUCAGCAAUAUUACGGCUC	0.00813 ± 0.1	0.687 ± 0.12
GAUCAGCAAUAUUACGUAUC	-3.17 ± 0.21	-2.62 ± 0.21
GAUCAGCAAUAUUACGUCCC	-2.07 ± 0.41	-0.381 ± 0.22
GAUCAGCAAUAUUACGUCCG	-3.26 ± 0.26	-1.66 ± 0.22
GAUCAGCAAUAUUACGUUGA	-2.24 ± 0.17	-1.54 ± 0.15
GAUGAGCAAUAUUACGAAGC	-1.4 ± 0.41	0.175 ± 0.21
GAUGAGCAAUAUUACGACGU	-1.09 ± 0.094	-0.283 ± 0.11
GAUGAGCAAUAUUACGACUG	-3.11 ± 0.44	
GAUGAGCAAUAUUACGAGCC	-0.987 ± 0.31	-1.53 ± 0.41
GAUGAGCAAUAUUACGAUUC	-2.42 ± 0.46	
GAUGAGCAAUAUUACGAUUG	-4.96 ± 0.45	-2.67 ± 0.22

Sequence	self-splicing fitness (ln) (30 °C)	self-splicing fitness (ln) (37 °C)
GAUGAGCAAUAUUACGCAUA	-2.68 ± 0.21	-1.98 ± 0.21
GAUGAGCAAUAUUACGCGGA	-2.72 ± 0.12	-2.15 ± 0.11
GAUGAGCAAUAUUACGCGGU	-3.33 ± 0.28	-2.77 ± 0.34
GAUGAGCAAUAUUACGCGUU	-4.44 ± 0.28	-3.27 ± 0.21
GAUGAGCAAUAUUACGGAAG	-2.31 ± 0.33	
GAUGAGCAAUAUUACGGAGU	-3.16 ± 0.26	-2.71 ± 0.38
GAUGAGCAAUAUUACGGCCG	0.414 ± 0.41	
GAUGAGCAAUAUUACGGGGA		-2.04 ± 0.25
GAUGAGCAAUAUUACGGGUA	-3.19 ± 0.27	-1.02 ± 0.17
GAUGAGCAAUAUUACGGUAU	-2.71 ± 0.18	-1.28 ± 0.14
GAUGAGCAAUAUUACGGUGA	-2.21 ± 0.28	-1.76 ± 0.27
GAUGAGCAAUAUUACGGUUA	-2.77 ± 0.28	-2.47 ± 0.25
GAUGAGCAAUAUUACGUAAU	-2.8 ± 0.23	-1.55 ± 0.28
GAUGAGCAAUAUUACGUAGC	-3.69 ± 0.34	-1.74 ± 0.25
GAUGAGCAAUAUUACGUAUC	-3.54 ± 0.37	-2.64 ± 0.31
GAUGAGCAAUAUUACGUAUG		-1.59 ± 0.14
GAUGAGCAAUAUUACGUCCG	-3.75 ± 0.43	-2.09 ± 0.32
GAUGAGCAAUAUUACGUGUA	-2.77 ± 0.16	-1.87 ± 0.16
GAUGAGCAAUAUUACGUGUU	-3.72 ± 0.31	-2.47 ± 0.27
GAUGAGCAAUAUUACGUUAC	-2.14 ± 0.13	-0.982 ± 0.23
GAUGAGCAAUAUUACGUUCA	-1.15 ± 0.079	-0.819 ± 0.094
GAUGAGCAAUAUUACGUUCC	-3.45 ± 0.49	-2.23 ± 0.42
GAUGAGCAAUAUUACGUUGC	-4.01 ± 0.39	-3 ± 0.35
